Laboratory results reported in the Human Domainome abundance scans (Beltran et al. 2025).
± gives the uncertainty stated by the source.

Experiment: abundance fitness (aPCA) (normalised: wild type 0, dead -1); higher = more abundant; growth selection in yeast, the domain comes from the species named
Details: Homo sapiens

Row | Substance | abundance fitness
1 | Lipoamide acyltransferase component of branched-chain alpha-keto acid dehydrogenase complex, mitochondrial K202V, P11182 | -0.105 ± 0.044
2 | Lipoamide acyltransferase component of branched-chain alpha-keto acid dehydrogenase complex, mitochondrial K202W, P11182 | -0.276 ± 0.056
3 | Lipoamide acyltransferase component of branched-chain alpha-keto acid dehydrogenase complex, mitochondrial K211A, P11182 | 0.066 ± 0.043
4 | Lipoamide acyltransferase component of branched-chain alpha-keto acid dehydrogenase complex, mitochondrial K211C, P11182 | -0.056 ± 0.053
5 | Lipoamide acyltransferase component of branched-chain alpha-keto acid dehydrogenase complex, mitochondrial K211D, P11182 | -0.076 ± 0.053
6 | Lipoamide acyltransferase component of branched-chain alpha-keto acid dehydrogenase complex, mitochondrial K211E, P11182 | -0.045 ± 0.039
7 | Lipoamide acyltransferase component of branched-chain alpha-keto acid dehydrogenase complex, mitochondrial K211F, P11182 | -0.232 ± 0.065
8 | Lipoamide acyltransferase component of branched-chain alpha-keto acid dehydrogenase complex, mitochondrial K211G, P11182 | 0.007 ± 0.037
9 | Lipoamide acyltransferase component of branched-chain alpha-keto acid dehydrogenase complex, mitochondrial K211H, P11182 | -0.041 ± 0.052
10 | Lipoamide acyltransferase component of branched-chain alpha-keto acid dehydrogenase complex, mitochondrial K211I, P11182 | -0.122 ± 0.061
11 | Lipoamide acyltransferase component of branched-chain alpha-keto acid dehydrogenase complex, mitochondrial K211L, P11182 | -0.115 ± 0.043
12 | Lipoamide acyltransferase component of branched-chain alpha-keto acid dehydrogenase complex, mitochondrial K211M, P11182 | -0.073 ± 0.051
13 | Lipoamide acyltransferase component of branched-chain alpha-keto acid dehydrogenase complex, mitochondrial K211N, P11182 | -0.058 ± 0.092
14 | Lipoamide acyltransferase component of branched-chain alpha-keto acid dehydrogenase complex, mitochondrial K211P, P11182 | -0.093 ± 0.048
15 | Lipoamide acyltransferase component of branched-chain alpha-keto acid dehydrogenase complex, mitochondrial K211Q, P11182 | -0.024 ± 0.044
16 | Lipoamide acyltransferase component of branched-chain alpha-keto acid dehydrogenase complex, mitochondrial K211R, P11182 | 0.043 ± 0.037
17 | Lipoamide acyltransferase component of branched-chain alpha-keto acid dehydrogenase complex, mitochondrial K211S, P11182 | -0.044 ± 0.04
18 | Lipoamide acyltransferase component of branched-chain alpha-keto acid dehydrogenase complex, mitochondrial K211T, P11182 | -0.041 ± 0.056
19 | Lipoamide acyltransferase component of branched-chain alpha-keto acid dehydrogenase complex, mitochondrial K211V, P11182 | -0.049 ± 0.045
20 | Lipoamide acyltransferase component of branched-chain alpha-keto acid dehydrogenase complex, mitochondrial K211W, P11182 | -0.206 ± 0.047
21 | Lipoamide acyltransferase component of branched-chain alpha-keto acid dehydrogenase complex, mitochondrial K211Y, P11182 | -0.157 ± 0.1
22 | Lipoamide acyltransferase component of branched-chain alpha-keto acid dehydrogenase complex, mitochondrial L172A, P11182 | -0.327 ± 0.053
23 | Lipoamide acyltransferase component of branched-chain alpha-keto acid dehydrogenase complex, mitochondrial L172C, P11182 | -0.243 ± 0.079
24 | Lipoamide acyltransferase component of branched-chain alpha-keto acid dehydrogenase complex, mitochondrial L172D, P11182 | -0.237 ± 0.076

Row | Substance | abundance fitness
25 | Lipoamide acyltransferase component of branched-chain alpha-keto acid dehydrogenase complex, mitochondrial L172E, P11182 | -0.107 ± 0.061
26 | Lipoamide acyltransferase component of branched-chain alpha-keto acid dehydrogenase complex, mitochondrial L172F, P11182 | -0.195 ± 0.085
27 | Lipoamide acyltransferase component of branched-chain alpha-keto acid dehydrogenase complex, mitochondrial L172G, P11182 | -0.681 ± 0.051
28 | Lipoamide acyltransferase component of branched-chain alpha-keto acid dehydrogenase complex, mitochondrial L172H, P11182 | -0.052 ± 0.091
29 | Lipoamide acyltransferase component of branched-chain alpha-keto acid dehydrogenase complex, mitochondrial L172I, P11182 | -0.047 ± 0.066
30 | Lipoamide acyltransferase component of branched-chain alpha-keto acid dehydrogenase complex, mitochondrial L172K, P11182 | -0.004 ± 0.048
31 | Lipoamide acyltransferase component of branched-chain alpha-keto acid dehydrogenase complex, mitochondrial L172M, P11182 | -0.063 ± 0.048
32 | Lipoamide acyltransferase component of branched-chain alpha-keto acid dehydrogenase complex, mitochondrial L172N, P11182 | -0.127 ± 0.07
33 | Lipoamide acyltransferase component of branched-chain alpha-keto acid dehydrogenase complex, mitochondrial L172P, P11182 | -0.226 ± 0.057
34 | Lipoamide acyltransferase component of branched-chain alpha-keto acid dehydrogenase complex, mitochondrial L172Q, P11182 | -0.428 ± 0.32
35 | Lipoamide acyltransferase component of branched-chain alpha-keto acid dehydrogenase complex, mitochondrial L172R, P11182 | -0.347 ± 0.049
36 | Lipoamide acyltransferase component of branched-chain alpha-keto acid dehydrogenase complex, mitochondrial L172S, P11182 | -0.251 ± 0.045
37 | Lipoamide acyltransferase component of branched-chain alpha-keto acid dehydrogenase complex, mitochondrial L172T, P11182 | -0.085 ± 0.1
38 | Lipoamide acyltransferase component of branched-chain alpha-keto acid dehydrogenase complex, mitochondrial L172V, P11182 | -0.107 ± 0.039
39 | Lipoamide acyltransferase component of branched-chain alpha-keto acid dehydrogenase complex, mitochondrial L172W, P11182 | -0.206 ± 0.061
40 | Lipoamide acyltransferase component of branched-chain alpha-keto acid dehydrogenase complex, mitochondrial L172Y, P11182 | -0.139 ± 0.07
41 | Lipoamide acyltransferase component of branched-chain alpha-keto acid dehydrogenase complex, mitochondrial L180C, P11182 | -0.421 ± 0.055
42 | Lipoamide acyltransferase component of branched-chain alpha-keto acid dehydrogenase complex, mitochondrial L180D, P11182 | -0.895 ± 0.16
43 | Lipoamide acyltransferase component of branched-chain alpha-keto acid dehydrogenase complex, mitochondrial L180E, P11182 | -0.438 ± 0.047
44 | Lipoamide acyltransferase component of branched-chain alpha-keto acid dehydrogenase complex, mitochondrial L180F, P11182 | -0.027 ± 0.095
45 | Lipoamide acyltransferase component of branched-chain alpha-keto acid dehydrogenase complex, mitochondrial L180G, P11182 | -0.609 ± 0.041
46 | Lipoamide acyltransferase component of branched-chain alpha-keto acid dehydrogenase complex, mitochondrial L180H, P11182 | -0.938 ± 0.17
47 | Lipoamide acyltransferase component of branched-chain alpha-keto acid dehydrogenase complex, mitochondrial L180I, P11182 | -0.194 ± 0.11
48 | Lipoamide acyltransferase component of branched-chain alpha-keto acid dehydrogenase complex, mitochondrial L180K, P11182 | -0.296 ± 0.2
